Results taken from publication PMC3410853 (PLoS Pathogens, 2012).

How the values were obtained:
[1] = biological target: SA-Fc fusion protein (bivalent SA-Fc variant; TGEV S residues 481 to 650); test: flow cytometry on cells (FACS, percentage of stained cells); details: transiently transfected 293T cells expressing similar amounts of HA-tagged pAPN proteins; parent: est. 100; read off a plot
[2] = biological target: porcine aminopeptidase N (pAPN) on the surface of BHK-pAPN cells (UniProt P15145); test: as above; details: same concentration of wild type and mutant SA-Fc proteins, parent: est. 100, read off a plot
[3] = biological target: T1, SA-Fc fusion protein (bivalent SA-Fc variant; TGEV S residues 481 to 650) (Transmissible gastroenteritis virus …, strain); test: ELISA
T1 construct: not shown: HA, N-terminal, kept; Fc (human IgG1), C-terminal, kept
T1 chain: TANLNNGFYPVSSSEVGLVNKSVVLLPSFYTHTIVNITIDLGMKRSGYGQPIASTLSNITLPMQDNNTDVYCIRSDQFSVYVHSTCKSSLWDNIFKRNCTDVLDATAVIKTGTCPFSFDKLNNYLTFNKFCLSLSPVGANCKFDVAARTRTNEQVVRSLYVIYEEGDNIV

[4] = biological target: the molecule itself; test: SEC; soluble pAPN ectodomain on Superdex 200 16/60, HEPES-saline buffer pH 7.5

recombinant membrane bound pAPN with an HA tag at the C-terminal end (from UniProt P15145) N736A
percent of parent [1]: 3%

SA-Fc fusion protein (bivalent SA-Fc variant; TGEV S residues 481 to 650) N632A
percent of parent [2]: 15%

SA-Fc fusion protein (bivalent SA-Fc variant; TGEV S residues 481 to 650) V617Ngly
percent of parent [2]: 105%

recombinant membrane bound pAPN with an HA tag at the C-terminal end (from UniProt P15145) T738V
percent of parent [1]: 3%

B1: TGEV-neutralizing monoclonal antibody 1AF10 (site A, subsite Ac) (antibody, V domains shown)
VH: QVQLQQSGPELVKPGASVKISCKASGYAFSSSWMNWVKQRPGQGLEWIGRIYPGDGETNYSEKFKGKATLTADKSSSTAYMHLSSLTSVDSAVYFCARGGYRYDPYYAMDYWGQGTSVTVSS
VL: DILLTQSPAILSVSPGERVSLSCRASQSIGTSIHWYQQRTNGSPRPLIKYASESISGIPSRFSGSGSGTDFTLNINSVESEDIADYFCQQTDSWPTTFGAGTKLELK
notes: also called 1AF10 mAb; mAb 1AF10; source: hybridoma cells; purified mAb or hybridoma supernatant; copies: 2 + 2
binding result [3]: binds

B2: engineered soluble pAPN (ectodomain, residues 36 to 963) (domain or fragment)
chain: EKNKNAEHVPQAPTSPTITTTAAITLDQSKPWNRYRLPTTLLPDSYNVTLRPYLTPNADGLYIFKGKSIVRLLCQEPTDVIIIHSKKLNYTTQGHMVVLRGVGDSQVPEIDRTELVELTEYLVVHLKGSLQPGHMYEMESEFQGELADDLAGFYRSEYMEGNVKKVLATTQMQSTDARKSFPCFDEPAMKATFNITLIHPNNLTALSNMPPKGSSTPLAEDPNWSVTEFETTPVMSTYLLAYIVSEFQSVNETAQNGVLIRIWARPNAIAEGHGMYALNVTGPILNFFANHYNTSYPLPKSDQIALPDFNAGAMENWGLVTYRENALLFDPQSSSISNKERVVTVIAHELAHQWFGNLVTLAWWNDLWLNEGFASYVEYLGADHAEPTWNLKDLIVPGDVYRVMAVDALASSHPLTTPAEEVNTPAQISEMFDSISYSKGASVIRMLSNFLTEDLFKEGLASYLHAFAYQNTTYLDLWEHLQKAVDAQTSIRLPDTVRAIMDRWTLQMGFPVITVDTKTGNISQKHFLLDSESNVTRSSAFDYLWIVPISSIKNGVMQDHYWLRDVSQAQNDLFKTASDDWVLLNVNVTGYFQVNYDEDNWRMIQHQLQTNLSVIPVINRAQVIYDSFNLATAHMVPVTLALDNTLFLNGEKEYMPWQAALSSLSYFSLMFDRSEVYGPMKKYLRKQVEPLFQHFETLTKNWTERPENLMDQYSEINAISTACSNGLPQCENLAKTLFDQWMSDPENNPIHPNLRSTIYCNAIAQGGQDQWDFAWGQLQQAQLVNEADKLRSALACSNEVWLLNRYLGYTLNPDLIRKQDATSTINSIASNVIGQPLAWDFVQSNWKKLFQDYGGGSFSFSNLIQGVTRRFSSEFELQQLEQFKKNNMDVGFGSGTRALEQALEKTKANIKWVKENKEVVLNWFIEHS
stoichiometry N [4]: 2
